Results from paper PMC4844016 (ACS chemical neuroscience, 2015).

Tests used:
[1] = test system: SH-SY5Y neuroblastoma cells; experiment: Apoptosis assay, Annexin V-FITC staining; type: cell-based; conditions: SHSY-5Y cells, 1 μM, data not shown
[2] = Oligomerization by PICUP and SDS-PAGE; type: physicochemical; conditions: 25–35 μM peptide, cross-linked, SDS-PAGE, silver staining
[3] = Ion mobility-mass spectrometry, oligomer distributions; type: physicochemical; conditions: IM-MS, 10 μM peptide in 10 mM ammonium acetate, pH 7.4
[4] = Thermodynamics of fibril formation; type: physicochemical; conditions: ΔG^0 = −RT ln (1/Cr); 20 μM, 37°C, 21 days without shaking; four independent experiments
[5] = test system: differentiated PC12 cells; experiment: MTT assay; type: cell-based; conditions: NGF-differentiated PC12 cells, 10 µM freshly prepared peptide, 24 h, 37°C; normalized to media control; three independent experiments, 6 wells
[6] = Bis-ANS fluorescence, exposure of hydrophobic surfaces; type: physicochemical; conditions: 20 µM peptide incubated at 37°C, shaking
Thioflavin T = type: physicochemical; conditions: 20 µM peptide, 40 µM ThT, pH 7.5, 37°C, shaking
[7] = Quasielastic light scattering spectroscopy; type: physicochemical; conditions: QLS
[8] = Electron microscopy of assembly morphology; type: physicochemical; conditions: EM

Compound | effect of positive control on cells [1] | oligomer size distribution by PICUP [2] | oligomers assigned in ATD of z/n = −5/2 peak [3] | ΔG^0 of fibril formation [4] | decrease in MTT metabolism [5] | time of peak Bis-ANS fluorescence [6] | time ThT fluorescence remained constant (lag) (Thioflavin T) | RH of small particles, initial distribution ([7]; 0.5 h of incubation) | RH of larger particles also observed, initial distribution ([7]; 0.5 h of incubation, relatively few particles) | RH of oligomers remaining after 24 h ([7]; 24 h of incubation) | maximal RH after 24 h ([7]; 24 h of incubation) | globules, size range, Day 0 ([8]; 37°C with shaking, day 0, Image J) | long fibrils, size range, Day 7 ([8]; 37°C with shaking, day 7) | short fibrils, assembly length, Day 7 ([8]; 37°C with shaking, day 7, value in parentheses) | annuli, inside diameter, Day 0 ([8]; day 0) | annuli, outside diameter, Day 0 ([8]; day 0)
CN[C@@H]1C[C@H]2O[C@@](C)([C@@H]1OC)n1c3ccccc3c3c4c(c5c6ccccc6n2c5c31)C(=O)NC4 [staurosporine] | complete disruption of membrane integrity | – | – | – | – | – | – | – | – | – | – | – | – | – | – | –
Amyloid β−protein (1–42) [Aβ42] | – | prominent node of band intensity at pentamer-hexamer | dimer, tetramer, hexamer, and dodecamer | −8.45 (0.12) kcal/mole | ≈ 23% | 4 h | ≈ 1 h | 8–10 nm | 100–1000 nm | 8–10 nm | > 1000 nm | 11–23 nm | 9–21 nm | 56–303 nm | 4–11 nm | 13–25 nm
